Assay [1] has as its target Crotalus durissus terrificus (C.d.t.) venom. Briefly: ELISA, C.d.t. venom-coated wells, 1:5. Background: An ELISA detects its analyte on a solid surface through an enzyme-linked reagent.
Assay [2] shares this target. Put plainly: ELISA, C.d.t. venom-coated wells, 1:25.
Assay [3] has the same target. Briefly: ELISA, C.d.t. venom-coated wells, 1:125.
Assay [4] shares this target. Put plainly: ELISA, C.d.t. venom-coated wells, 1:625.
The target is the same in assay [5]. Briefly: ELISA, C.d.t. venom-coated wells, 1:3125.
Assay [6] shares this target. Briefly: ELISA, C.d.t. venom-coated wells, IgY 1:62,500.
Assay [7] has the same target. Briefly: ELISA, C.d.t. venom-coated wells, IgY 1:312,500.
Assay [8] has the same target. Briefly: ELISA, wells coated with 5 µg/ml C.d.t. venom, 1:5.
Assay [9] shares this target. Briefly: ELISA, wells coated with 5 µg/ml C.d.t. venom, 1:25.
Assay [10] has the same target. Put plainly: ELISA, wells coated with 5 µg/ml C.d.t. venom, 1:125.
The target is the same in assay [11]. Put plainly: ELISA, wells coated with 5 µg/ml C.d.t. venom, 1:625.
The target is the same in assay [12]. Put plainly: ELISA, wells coated with 5 µg/ml C.d.t. venom, 1:3125.
For assay [13] the target is unchanged. Briefly: ELISA, wells coated with 5 µg/ml C.d.t. venom, undiluted.

With preimmune IgY (antibody), the absorbance (ELISA) (absorbance at 412 nm) was below 0 in assay [1]; 0.016 in assay [2]; below 0 in assay [3]; below 0 in assay [4]; below 0 in assay [5]; 0.001 in assay [6]. The absorbance (ELISA) (absorbance at 412 nm) was 0.01 in assay [7]; below 0 in [8]; 0 in assay [9]; 0.003 in assay [10]; 0 in [11]; 0.002 in assay [12]. This substance displayed an absorbance (ELISA) (absorbance at 412 nm) in assay [13] of 0.003.

The record behind these values is patent US6365158.
